Reference: the supplement of paper PMC7125110
± gives the standard error. For some assays here: Fewer inactive variants are shown than the library holds.

B1: glmS ribozyme (parent)
chain: AUAAAAGCGCCAGAACUACAGAAAUGUAGUUGACGAGGAGGAGGUUUAUCGAAUUUUCGGCGGAUGCCUCCAAA

Tests used:
Conditions in all cases: with glucosamine-6-phosphate
glucosamine-6-phosphate [1] = variants of: B1; test: kcat; higher = faster cleavage; RNA array
Summary of the method: (§1)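 Barcoded ribozyme variants on sequenced MiSeq chips were transcribed in situ by E. coli RNA polymerase and followed at 37 °C through a hybridised Cy3 probe. Glucosamine-6-phosphate at 40 μM to 10 mM in HEPES/KCl/Mg(OAc)2 buffer was flowed in, and tiles were imaged over ~14 h. Signals were normalised to baseline and to non-cleaving reference variants, and per-tile medians were fit to one- or two-exponential decays to give kobs. Weighted Michaelis–Menten fits across concentrations gave kcat and KM.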

glucosamine-6-phosphate [2] = variants of: B1; test: self-cleavage kobs at 640 uM GlcN6P; higher = faster cleavage; RNA array
Summary of the method: as §1

glucosamine-6-phosphate [3] = variants of: B1; test: self-cleavage kobs at 2500 uM GlcN6P; higher = faster cleavage; RNA array
Summary of the method: as §1

glucosamine-6-phosphate [4] = variants of: B1; test: self-cleavage kobs at 10000 uM GlcN6P; higher = faster cleavage; RNA array
Summary of the method: as §1

glucosamine-6-phosphate [5] = variants of: B1; test: self-cleavage kobs at 40 uM GlcN6P; higher = faster cleavage; RNA array
Summary of the method: as §1

glucosamine-6-phosphate [6] = variants of: B1; test: self-cleavage kobs at 160 uM GlcN6P; higher = faster cleavage; RNA array
Summary of the method: as §1

glucosamine-6-phosphate [7] = variants of: B1; test: KM; higher = weaker cofactor use; RNA array
Summary of the method: as §1

| Variant | kcat (glucosamine-6-phosphate [1]) [s⁻¹] | self-cleavage kobs at 640 uM GlcN6P (glucosamine-6-phosphate [2]) [s⁻¹] | self-cleavage kobs at 2500 uM GlcN6P (glucosamine-6-phosphate [3]) [s⁻¹] | self-cleavage kobs at 10000 uM GlcN6P (glucosamine-6-phosphate [4]) [s⁻¹] | self-cleavage kobs at 40 uM GlcN6P (glucosamine-6-phosphate [5]) [s⁻¹] | self-cleavage kobs at 160 uM GlcN6P (glucosamine-6-phosphate [6]) [s⁻¹] | KM (glucosamine-6-phosphate [7]) [µM] |
| --- | --- | --- | --- | --- | --- | --- | --- |
| AUAAAAGCGCCAGAACUACAGAAAUGUAGUUGACGAGGAGGAGGUUUGUCGAAUUUUCGGCGGAUGCCUGCAAA | 6.2e-05 ± 1.1e-05 | 8.57e-05 ± 1.8e-05 | 7.26e-05 ± 1.6e-05 | 5.25e-05 ± 9.4e-06 |  |  |  |
| AUAAAAGCGCCAGAACUACAGAAAUGUAGUUGACGAGGAGGAGGUGUAUCGAAUUUUCGGCGGAUGCCACCAAA | 0.000212 ± 5.4e-05 | 0.000212 ± 4.2e-05 | 0.000306 ± 4.6e-05 | 0.000143 ± 3.6e-05 | 6.14e-05 ± 1.9e-05 | 9.88e-05 ± 1.7e-05 |  |
| AUAAAAGCGCCAGAACUACAGAAAUGUACUUGACGAGGAGGAGGUUUAUCGAAUUUACGGCGGAUGCCUCCAAA | 4.62e-05 ± 8e-06 |  |  | 3.78e-05 ± 1.1e-05 |  |  |  |
| AUAAAAGCGCCAGACCUACAGAAAUGUAGUUGACGAGGAGGAGGUUUAUCGAAUUUUCGGCGGAUGCAUCCAAA | 2.89e-05 ± 1.1e-05 |  |  |  |  |  |  |
| AUAAAUGCGCCAGAACUACAGAAAUGUAGUUGACGAGGAGGAGGUUUAUCGAAUUAUCGGCGGAUGCCUCCAAA | 0.000103 ± 7e-06 | 3.39e-05 ± 1e-05 | 5.83e-05 ± 9e-06 | 9.06e-05 ± 9.5e-06 |  |  | 1590 ± 350 |
| AUAAAAGCGCCAGAACUACAGAAAUGUAGUUGACGAGGAGGAGGUUUAUCUAAUUUUCGCCGGAUGCCUGCAAA | 1.22e-05 ± 2.5e-06 |  |  |  | < 1e-05 |  |  |
| AUAAAAGCGCCAGAACUACAGAAAUGUAGUUGACGAGGAGGAGGCUUAUCGAAUUUUCGGCGGAUGCCUCAAAA | 0.00125 ± 0.00022 | 0.00014 ± 3.9e-05 | 0.000744 ± 0.00031 | 0.000832 ± 0.00015 |  |  | 4720 ± 1500 |
| AUAAAAGCGCCAGAUCUACAGAAAUGUAGUUGACGAGGAGGAGGUAUAUCGAAUUUUCGGCGGAUGCCUCCAAA | 0.000378 ± 2.9e-05 | 8.53e-05 ± 9.5e-06 | 0.000225 ± 2.3e-05 | 0.000303 ± 3.2e-05 |  | 3.16e-05 ± 1.1e-05 | 2050 ± 300 |
| AUAAAAGCGCCCGAACUACAGAAAUGUAGUUGACGAGGAGGAGGUUUAUCGAAUUUUCGGCGGAAGCCUCCAAA | 0.00216 ± 0.00024 | 0.000345 ± 6.5e-05 | 0.000932 ± 0.00017 | 0.00173 ± 0.00015 | 3.82e-05 ± 8.1e-06 | 0.000134 ± 3.3e-05 | 2790 ± 570 |
